Results from patent US12679878B2, “CRF2 receptor agonists and their use in therapy” (SANOFI, priority 2020, dated 2026).
Starred links: 1 amine or outer side, 2 acyl side, 3 side chain; linkers in the order of their positions; H or OH if unused. Non-standard residues stand in square brackets, D forms with d. Groups on a side chain read outwards from the residue. No end group written: not given here. *: point of attachment. C18 diacid = O=C(O)CCCCCCCCCCCCCCCCC(=O)*; γGlu = O=C(O)[C@H](CCC(=O)[*:2])N[*:1]; AEEA = NCCOCCOCC(=O)O; Aib = CC(C)(N)C(=O)O

B1: peptide of SEQ ID NO: 86 (peptide)
peptide: IVLSLDVPIKLK([AEEA-AEEA-γGlu-C18 diacid])QILLKQERQKKQREQAKTNKQILAQV-NH2
modifications: N-terminus assumed
SMILES: CC[C@H](C)[C@H](N)C(=O)N[C@H](C(=O)N[C@@H](CC(C)C)C(=O)N[C@@H](CO)C(=O)N[C@@H](CC(C)C)C(=O)N[C@@H](CC(=O)O)C(=O)N[C@H](C(=O)N1CCC[C@H]1C(=O)N[C@H](C(=O)N[C@@H](CCCCN)C(=O)N[C@@H](CC(C)C)C(=O)N[C@@H](CCCCNC(=O)COCCOCCNC(=O)COCCOCCNC(=O)CC[C@H](NC(=O)CCCCCCCCCCCCCCCCC(=O)O)C(=O)O)C(=O)N[C@@H](CCC(N)=O)C(=O)N[C@H](C(=O)N[C@@H](CC(C)C)C(=O)N[C@@H](CC(C)C)C(=O)N[C@@H](CCCCN)C(=O)N[C@@H](CCC(N)=O)C(=O)N[C@@H](CCC(=O)O)C(=O)N[C@@H](CCCNC(=N)N)C(=O)N[C@@H](CCC(N)=O)C(=O)N[C@@H](CCCCN)C(=O)N[C@@H](CCCCN)C(=O)N[C@@H](CCC(N)=O)C(=O)N[C@@H](CCCNC(=N)N)C(=O)N[C@@H](CCC(=O)O)C(=O)N[C@@H](CCC(N)=O)C(=O)N[C@@H](C)C(=O)N[C@@H](CCCCN)C(=O)N[C@H](C(=O)N[C@@H](CC(N)=O)C(=O)N[C@@H](CCCCN)C(=O)N[C@@H](CCC(N)=O)C(=O)N[C@H](C(=O)N[C@@H](CC(C)C)C(=O)N[C@@H](C)C(=O)N[C@@H](CCC(N)=O)C(=O)N[C@H](C(N)=O)C(C)C)[C@@H](C)CC)[C@@H](C)O)[C@@H](C)CC)[C@@H](C)CC)C(C)C)C(C)C
B2: peptide of SEQ ID NO: 87 (peptide)
peptide: IVLSLDVPIKLK([AEEA-AEEA-γGlu-C18 diacid])QILLKQERQKKQREKAKTNKQILAQV-NH2
modifications: N-terminus assumed
SMILES: CC[C@H](C)[C@H](N)C(=O)N[C@H](C(=O)N[C@@H](CC(C)C)C(=O)N[C@@H](CO)C(=O)N[C@@H](CC(C)C)C(=O)N[C@@H](CC(=O)O)C(=O)N[C@H](C(=O)N1CCC[C@H]1C(=O)N[C@H](C(=O)N[C@@H](CCCCN)C(=O)N[C@@H](CC(C)C)C(=O)N[C@@H](CCCCNC(=O)COCCOCCNC(=O)COCCOCCNC(=O)CC[C@H](NC(=O)CCCCCCCCCCCCCCCCC(=O)O)C(=O)O)C(=O)N[C@@H](CCC(N)=O)C(=O)N[C@H](C(=O)N[C@@H](CC(C)C)C(=O)N[C@@H](CC(C)C)C(=O)N[C@@H](CCCCN)C(=O)N[C@@H](CCC(N)=O)C(=O)N[C@@H](CCC(=O)O)C(=O)N[C@@H](CCCNC(=N)N)C(=O)N[C@@H](CCC(N)=O)C(=O)N[C@@H](CCCCN)C(=O)N[C@@H](CCCCN)C(=O)N[C@@H](CCC(N)=O)C(=O)N[C@@H](CCCNC(=N)N)C(=O)N[C@@H](CCC(=O)O)C(=O)N[C@@H](CCCCN)C(=O)N[C@@H](C)C(=O)N[C@@H](CCCCN)C(=O)N[C@H](C(=O)N[C@@H](CC(N)=O)C(=O)N[C@@H](CCCCN)C(=O)N[C@@H](CCC(N)=O)C(=O)N[C@H](C(=O)N[C@@H](CC(C)C)C(=O)N[C@@H](C)C(=O)N[C@@H](CCC(N)=O)C(=O)N[C@H](C(N)=O)C(C)C)[C@@H](C)CC)[C@@H](C)O)[C@@H](C)CC)[C@@H](C)CC)C(C)C)C(C)C
B3: peptide of SEQ ID NO: 85 (peptide)
peptide: IVLSLDVPIKLK([AEEA-AEEA-γGlu-C18 diacid])QILLKQERQKKQREQAETNKQILAQV-NH2
modifications: N-terminus assumed
SMILES: CC[C@H](C)[C@H](N)C(=O)N[C@H](C(=O)N[C@@H](CC(C)C)C(=O)N[C@@H](CO)C(=O)N[C@@H](CC(C)C)C(=O)N[C@@H](CC(=O)O)C(=O)N[C@H](C(=O)N1CCC[C@H]1C(=O)N[C@H](C(=O)N[C@@H](CCCCN)C(=O)N[C@@H](CC(C)C)C(=O)N[C@@H](CCCCNC(=O)COCCOCCNC(=O)COCCOCCNC(=O)CC[C@H](NC(=O)CCCCCCCCCCCCCCCCC(=O)O)C(=O)O)C(=O)N[C@@H](CCC(N)=O)C(=O)N[C@H](C(=O)N[C@@H](CC(C)C)C(=O)N[C@@H](CC(C)C)C(=O)N[C@@H](CCCCN)C(=O)N[C@@H](CCC(N)=O)C(=O)N[C@@H](CCC(=O)O)C(=O)N[C@@H](CCCNC(=N)N)C(=O)N[C@@H](CCC(N)=O)C(=O)N[C@@H](CCCCN)C(=O)N[C@@H](CCCCN)C(=O)N[C@@H](CCC(N)=O)C(=O)N[C@@H](CCCNC(=N)N)C(=O)N[C@@H](CCC(=O)O)C(=O)N[C@@H](CCC(N)=O)C(=O)N[C@@H](C)C(=O)N[C@@H](CCC(=O)O)C(=O)N[C@H](C(=O)N[C@@H](CC(N)=O)C(=O)N[C@@H](CCCCN)C(=O)N[C@@H](CCC(N)=O)C(=O)N[C@H](C(=O)N[C@@H](CC(C)C)C(=O)N[C@@H](C)C(=O)N[C@@H](CCC(N)=O)C(=O)N[C@H](C(N)=O)C(C)C)[C@@H](C)CC)[C@@H](C)O)[C@@H](C)CC)[C@@H](C)CC)C(C)C)C(C)C
B4: peptide of SEQ ID NO: 100 (peptide)
peptide: IVLSLDVPIKLK([AEEA-AEEA-γGlu-C18 diacid])KILLKQERQKK[Aib]REQAETN[Aib]QILAQV-NH2
modifications: N-terminus assumed
SMILES: CC[C@H](C)[C@H](N)C(=O)N[C@H](C(=O)N[C@@H](CC(C)C)C(=O)N[C@@H](CO)C(=O)N[C@@H](CC(C)C)C(=O)N[C@@H](CC(=O)O)C(=O)N[C@H](C(=O)N1CCC[C@H]1C(=O)N[C@H](C(=O)N[C@@H](CCCCN)C(=O)N[C@@H](CC(C)C)C(=O)N[C@@H](CCCCNC(=O)COCCOCCNC(=O)COCCOCCNC(=O)CC[C@H](NC(=O)CCCCCCCCCCCCCCCCC(=O)O)C(=O)O)C(=O)N[C@@H](CCCCN)C(=O)N[C@H](C(=O)N[C@@H](CC(C)C)C(=O)N[C@@H](CC(C)C)C(=O)N[C@@H](CCCCN)C(=O)N[C@@H](CCC(N)=O)C(=O)N[C@@H](CCC(=O)O)C(=O)N[C@@H](CCCNC(=N)N)C(=O)N[C@@H](CCC(N)=O)C(=O)N[C@@H](CCCCN)C(=O)N[C@@H](CCCCN)C(=O)NC(C)(C)C(=O)N[C@@H](CCCNC(=N)N)C(=O)N[C@@H](CCC(=O)O)C(=O)N[C@@H](CCC(N)=O)C(=O)N[C@@H](C)C(=O)N[C@@H](CCC(=O)O)C(=O)N[C@H](C(=O)N[C@@H](CC(N)=O)C(=O)NC(C)(C)C(=O)N[C@@H](CCC(N)=O)C(=O)N[C@H](C(=O)N[C@@H](CC(C)C)C(=O)N[C@@H](C)C(=O)N[C@@H](CCC(N)=O)C(=O)N[C@H](C(N)=O)C(C)C)[C@@H](C)CC)[C@@H](C)O)[C@@H](C)CC)[C@@H](C)CC)C(C)C)C(C)C
B5: peptide of SEQ ID NO: 99 (peptide)
peptide: IVLSLDVPIKLK([AEEA-AEEA-γGlu-C18 diacid])KILLKQERQKK[Aib]REQAEKNKQILAQV-NH2
modifications: N-terminus assumed
SMILES: CC[C@H](C)[C@H](N)C(=O)N[C@H](C(=O)N[C@@H](CC(C)C)C(=O)N[C@@H](CO)C(=O)N[C@@H](CC(C)C)C(=O)N[C@@H](CC(=O)O)C(=O)N[C@H](C(=O)N1CCC[C@H]1C(=O)N[C@H](C(=O)N[C@@H](CCCCN)C(=O)N[C@@H](CC(C)C)C(=O)N[C@@H](CCCCNC(=O)COCCOCCNC(=O)COCCOCCNC(=O)CC[C@H](NC(=O)CCCCCCCCCCCCCCCCC(=O)O)C(=O)O)C(=O)N[C@@H](CCCCN)C(=O)N[C@H](C(=O)N[C@@H](CC(C)C)C(=O)N[C@@H](CC(C)C)C(=O)N[C@@H](CCCCN)C(=O)N[C@@H](CCC(N)=O)C(=O)N[C@@H](CCC(=O)O)C(=O)N[C@@H](CCCNC(=N)N)C(=O)N[C@@H](CCC(N)=O)C(=O)N[C@@H](CCCCN)C(=O)N[C@@H](CCCCN)C(=O)NC(C)(C)C(=O)N[C@@H](CCCNC(=N)N)C(=O)N[C@@H](CCC(=O)O)C(=O)N[C@@H](CCC(N)=O)C(=O)N[C@@H](C)C(=O)N[C@@H](CCC(=O)O)C(=O)N[C@@H](CCCCN)C(=O)N[C@@H](CC(N)=O)C(=O)N[C@@H](CCCCN)C(=O)N[C@@H](CCC(N)=O)C(=O)N[C@H](C(=O)N[C@@H](CC(C)C)C(=O)N[C@@H](C)C(=O)N[C@@H](CCC(N)=O)C(=O)N[C@H](C(N)=O)C(C)C)[C@@H](C)CC)[C@@H](C)CC)[C@@H](C)CC)C(C)C)C(C)C

Assays:
rat CRF2R α receptor = rat CRF2R α receptor (rat, UniProt P47866 20-411); test: cell-based or functional assay
Chain of rat CRF2R α receptor (P47866 20-411): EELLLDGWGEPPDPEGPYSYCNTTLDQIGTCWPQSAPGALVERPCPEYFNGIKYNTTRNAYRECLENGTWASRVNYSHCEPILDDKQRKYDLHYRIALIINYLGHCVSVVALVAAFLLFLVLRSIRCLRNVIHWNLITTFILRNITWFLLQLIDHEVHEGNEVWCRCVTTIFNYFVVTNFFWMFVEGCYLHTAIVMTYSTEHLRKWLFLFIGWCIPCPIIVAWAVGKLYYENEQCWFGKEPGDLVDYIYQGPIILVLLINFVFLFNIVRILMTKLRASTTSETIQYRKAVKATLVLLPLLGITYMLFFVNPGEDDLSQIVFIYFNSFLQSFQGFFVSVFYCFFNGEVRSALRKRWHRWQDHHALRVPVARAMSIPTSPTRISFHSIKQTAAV

[1] = biological target: T1, anti-target CRF1R receptor (UniProt P34998 24-415, limits assumed); test: cell-based or functional assay
T1 sequence (looked up): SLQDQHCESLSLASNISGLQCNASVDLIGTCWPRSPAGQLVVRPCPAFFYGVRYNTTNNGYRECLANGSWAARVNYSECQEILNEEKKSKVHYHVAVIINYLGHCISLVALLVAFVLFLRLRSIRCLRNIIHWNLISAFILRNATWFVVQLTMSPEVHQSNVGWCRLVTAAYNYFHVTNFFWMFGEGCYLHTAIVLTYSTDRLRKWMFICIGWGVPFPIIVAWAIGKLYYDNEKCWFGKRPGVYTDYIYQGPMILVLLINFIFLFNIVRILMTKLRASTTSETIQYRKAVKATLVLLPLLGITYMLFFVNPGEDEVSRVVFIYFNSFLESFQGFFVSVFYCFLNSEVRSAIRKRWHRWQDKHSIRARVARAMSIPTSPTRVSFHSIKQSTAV

Binder	EC50 [nM], 0% HSA (cAMP, A7R5 cells) (rat CRF2R α receptor) [nM]	EC50[nM] 0% HSA (cAMP, CRF1R-overexpression CHO cells) [1] [nM]	Emax (%) (cAMP, CRF1R-overexpression CHO cells) [1]
B1	0.69	> 1000	15.9
B2	1.49	> 1000	-0.2
B3	0.73	> 1000	0.14
B4	7.52	> 1000	5.06
B5	0.62	> 1000	3.25
